The supplement of paper PMC9112550, “Optimization of the antimicrobial peptide Bac7 by deep mutational scanning” (BMC Biology, 2022)
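Further: peptides expressed intracellularly from a pBAD plasmid library in pooled LB shake-flask culture, induced with 0.3% L-arabinose, DNA abundance read by NGS, three biological replicates, DESeq2 with apeglm shrinkage.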

Each sequence was assayed on Escherichia coli TOP10 (assay: shrunken log2 fold change of peptide-encoding DNA abundance (4.5 h post-induction vs induction); higher = less antimicrobial activity (less host growth inhibition)). Conditions: time post-induction: 4.5 h; library: site-saturation at positions 5, 18, 19, 20.
With RRIRKRPPRLPRPRPRPHLPPRP the “shrunken log2 fold change” value was 0.0692.
For RRIRGRPPRLPRPRPRPPMWPRP, the “shrunken log2 fold change” value was 1.1.
With RRIRARPPRLPRPRPRPFEMPRP the “shrunken log2 fold change” value was 0.135.
In the case of RRIRNRPPRLPRPRPRPWCGPRP, the “shrunken log2 fold change” value is reported as -0.263.
For RRIRERPPRLPRPRPRPSGVPRP, the “shrunken log2 fold change” value was -0.157.
With RRIRFRPPRLPRPRPRPKCHPRP the “shrunken log2 fold change” value was -0.42.
RRIRGRPPRLPRPRPRPPHTPRP was tested, and the “shrunken log2 fold change” value was 0.985.
With RRIRDRPPRLPRPRPRPSPFPRP the “shrunken log2 fold change” value was -0.0929.
With RRIRWRPPRLPRPRPRPIAHPRP the “shrunken log2 fold change” value was -0.074.
RRIRWRPPRLPRPRPRPFMQPRP was tested, and the “shrunken log2 fold change” value was -0.261.
RRIRDRPPRLPRPRPRPKYCPRP was tested, and the “shrunken log2 fold change” value was -0.0392.
With RRIRQRPPRLPRPRPRPSNYPRP the “shrunken log2 fold change” value was -0.0943.
In the case of RRIRLRPPRLPRPRPRPYDGPRP, the “shrunken log2 fold change” value is reported as 0.0118.
For RRIRARPPRLPRPRPRPCLKPRP, the “shrunken log2 fold change” value was -0.0264.
For RRIRKRPPRLPRPRPRPCQNPRP, the “shrunken log2 fold change” value was 0.412.
For RRIRRRPPRLPRPRPRPWLQPRP, the “shrunken log2 fold change” value was 0.0763.
RRIRLRPPRLPRPRPRPIMIPRP was tested, and the “shrunken log2 fold change” value was -0.286.
RRIRMRPPRLPRPRPRPVLNPRP was tested, and the “shrunken log2 fold change” value was -0.232.
For RRIRTRPPRLPRPRPRPKMSPRP, the “shrunken log2 fold change” value was 0.116.
RRIRSRPPRLPRPRPRPKHAPRP was tested, and the “shrunken log2 fold change” value was 0.143.
RRIRWRPPRLPRPRPRPSTCPRP was tested, and the “shrunken log2 fold change” value was -0.457.
RRIRYRPPRLPRPRPRPSTIPRP was tested, and the “shrunken log2 fold change” value was -0.324.
RRIRKRPPRLPRPRPRPEDIPRP was tested, and the “shrunken log2 fold change” value was -0.00208.
With RRIRSRPPRLPRPRPRPRSFPRP the “shrunken log2 fold change” value was 0.124.
In the case of RRIRYRPPRLPRPRPRPMCRPRP, the “shrunken log2 fold change” value is reported as -0.181.
In the case of RRIRSRPPRLPRPRPRPLCMPRP, the “shrunken log2 fold change” value is reported as -0.242.
With RRIRARPPRLPRPRPRPESSPRP the “shrunken log2 fold change” value was 2.39.
With RRIRNRPPRLPRPRPRPQVVPRP the “shrunken log2 fold change” value was 0.0145.
RRIRYRPPRLPRPRPRPFWRPRP was tested, and the “shrunken log2 fold change” value was 0.0184.
In the case of RRIRERPPRLPRPRPRPFQDPRP, the “shrunken log2 fold change” value is reported as 0.0039.
RRIRCRPPRLPRPRPRPTWNPRP was tested, and the “shrunken log2 fold change” value was 0.128.
For RRIRNRPPRLPRPRPRPIFFPRP, the “shrunken log2 fold change” value was 0.0887.
With RRIRKRPPRLPRPRPRPSVNPRP the “shrunken log2 fold change” value was -0.0205.
For RRIRPRPPRLPRPRPRPWACPRP, the “shrunken log2 fold change” value was -0.00713.
RRIRARPPRLPRPRPRPYLFPRP was tested, and the “shrunken log2 fold change” value was -0.494.
For RRIRARPPRLPRPRPRPFPEPRP, the “shrunken log2 fold change” value was 0.319.
With RRIRSRPPRLPRPRPRPRLDPRP the “shrunken log2 fold change” value was 0.25.
In the case of RRIRFRPPRLPRPRPRPKSTPRP, the “shrunken log2 fold change” value is reported as -0.3.
RRIRERPPRLPRPRPRPLDMPRP was tested, and the “shrunken log2 fold change” value was -0.16.
With RRIRPRPPRLPRPRPRPSCNPRP the “shrunken log2 fold change” value was -0.314.
In the case of RRIRMRPPRLPRPRPRPIKNPRP, the “shrunken log2 fold change” value is reported as 0.387.
RRIRTRPPRLPRPRPRPQLMPRP was tested, and the “shrunken log2 fold change” value was -0.137.
RRIRDRPPRLPRPRPRPVSPPRP was tested, and the “shrunken log2 fold change” value was -0.134.
For RRIRDRPPRLPRPRPRPWKDPRP, the “shrunken log2 fold change” value was -0.0129.
For RRIRERPPRLPRPRPRPKYPPRP, the “shrunken log2 fold change” value was -0.00672.
With RRIRRRPPRLPRPRPRPIKAPRP the “shrunken log2 fold change” value was 0.0673.
With RRIRLRPPRLPRPRPRPQCEPRP the “shrunken log2 fold change” value was -0.153.
In the case of RRIRRRPPRLPRPRPRPYREPRP, the “shrunken log2 fold change” value is reported as -0.344.
RRIRCRPPRLPRPRPRPGRTPRP was tested, and the “shrunken log2 fold change” value was -0.106.
With RRIRIRPPRLPRPRPRPCDAPRP the “shrunken log2 fold change” value was -0.27.
In the case of RRIRCRPPRLPRPRPRPFGEPRP, the “shrunken log2 fold change” value is reported as -0.282.
In the case of RRIRCRPPRLPRPRPRPISCPRP, the “shrunken log2 fold change” value is reported as -0.0979.
In the case of RRIRARPPRLPRPRPRPKCAPRP, the “shrunken log2 fold change” value is reported as 0.363.
With RRIRGRPPRLPRPRPRPAVLPRP the “shrunken log2 fold change” value was 0.394.
With RRIRGRPPRLPRPRPRPWTPPRP the “shrunken log2 fold change” value was 0.75.
With RRIRARPPRLPRPRPRPHRKPRP the “shrunken log2 fold change” value was -0.000548.
In the case of RRIRDRPPRLPRPRPRPVWYPRP, the “shrunken log2 fold change” value is reported as -0.134.
For RRIRMRPPRLPRPRPRPGFFPRP, the “shrunken log2 fold change” value was 0.423.
In the case of RRIRCRPPRLPRPRPRPAQWPRP, the “shrunken log2 fold change” value is reported as 0.696.
RRIRRRPPRLPRPRPRPWDDPRP was tested, and the “shrunken log2 fold change” value was -0.0642.
In the case of RRIRERPPRLPRPRPRPFDWPRP, the “shrunken log2 fold change” value is reported as 0.0619.
For RRIRLRPPRLPRPRPRPPGPPRP, the “shrunken log2 fold change” value was 0.359.
With RRIRRRPPRLPRPRPRPQIVPRP the “shrunken log2 fold change” value was -0.13.
RRIRIRPPRLPRPRPRPWSYPRP was tested, and the “shrunken log2 fold change” value was -0.427.
With RRIRDRPPRLPRPRPRPFNYPRP the “shrunken log2 fold change” value was -0.048.
RRIRQRPPRLPRPRPRPCDSPRP was tested, and the “shrunken log2 fold change” value was -0.0167.
For RRIRHRPPRLPRPRPRPRPCPRP, the “shrunken log2 fold change” value was 0.227.
RRIRPRPPRLPRPRPRPMFYPRP was tested, and the “shrunken log2 fold change” value was -0.449.
In the case of RRIRHRPPRLPRPRPRPSWLPRP, the “shrunken log2 fold change” value is reported as -0.0847.
With RRIRRRPPRLPRPRPRPVNKPRP the “shrunken log2 fold change” value was 0.169.
In the case of RRIRKRPPRLPRPRPRPCVWPRP, the “shrunken log2 fold change” value is reported as 0.205.
RRIRTRPPRLPRPRPRPHGDPRP was tested, and the “shrunken log2 fold change” value was -0.146.
In the case of RRIRNRPPRLPRPRPRPFSPPRP, the “shrunken log2 fold change” value is reported as -0.148.
With RRIRTRPPRLPRPRPRPCHSPRP the “shrunken log2 fold change” value was -0.039.
For RRIRNRPPRLPRPRPRPLVPPRP, the “shrunken log2 fold change” value was -0.213.
With RRIRCRPPRLPRPRPRPYKIPRP the “shrunken log2 fold change” value was -0.785.
In the case of RRIRHRPPRLPRPRPRPCPLPRP, the “shrunken log2 fold change” value is reported as -0.667.
For RRIRSRPPRLPRPRPRPRDNPRP, the “shrunken log2 fold change” value was -0.0866.
For RRIRTRPPRLPRPRPRPATKPRP, the “shrunken log2 fold change” value was 0.0756.
RRIRCRPPRLPRPRPRPNKIPRP was tested, and the “shrunken log2 fold change” value was -0.461.
RRIRCRPPRLPRPRPRPMQQPRP was tested, and the “shrunken log2 fold change” value was -0.036.
In the case of RRIRLRPPRLPRPRPRPNAMPRP, the “shrunken log2 fold change” value is reported as -0.16.
In the case of RRIRDRPPRLPRPRPRPSDTPRP, the “shrunken log2 fold change” value is reported as -0.343.
RRIRKRPPRLPRPRPRPHCAPRP was tested, and the “shrunken log2 fold change” value was -0.00229.
RRIRARPPRLPRPRPRPSCQPRP was tested, and the “shrunken log2 fold change” value was 0.133.
For RRIRLRPPRLPRPRPRPMPFPRP, the “shrunken log2 fold change” value was -0.0289.
In the case of RRIRLRPPRLPRPRPRPFHLPRP, the “shrunken log2 fold change” value is reported as -0.177.
For RRIRMRPPRLPRPRPRPNVGPRP, the “shrunken log2 fold change” value was -0.0241.
With RRIRGRPPRLPRPRPRPAQFPRP the “shrunken log2 fold change” value was 0.199.
For RRIRERPPRLPRPRPRPVDPPRP, the “shrunken log2 fold change” value was -0.342.
RRIRARPPRLPRPRPRPRLQPRP was tested, and the “shrunken log2 fold change” value was 0.637.
For RRIRGRPPRLPRPRPRPSDHPRP, the “shrunken log2 fold change” value was 0.0544.
With RRIRRRPPRLPRPRPRPGCQPRP the “shrunken log2 fold change” value was -0.176.
With RRIRMRPPRLPRPRPRPTCVPRP the “shrunken log2 fold change” value was 0.424.
For RRIRSRPPRLPRPRPRPFCRPRP, the “shrunken log2 fold change” value was -0.0968.
With RRIRGRPPRLPRPRPRPRLSPRP the “shrunken log2 fold change” value was 0.313.
In the case of RRIRNRPPRLPRPRPRPFCAPRP, the “shrunken log2 fold change” value is reported as -0.0161.
For RRIRCRPPRLPRPRPRPWPVPRP, the “shrunken log2 fold change” value was 0.215.
RRIRGRPPRLPRPRPRPGDHPRP was tested, and the “shrunken log2 fold change” value was 0.333.
In the case of RRIRARPPRLPRPRPRPNIAPRP, the “shrunken log2 fold change” value is reported as 0.464.
For RRIRRRPPRLPRPRPRPVCRPRP, the “shrunken log2 fold change” value was 0.562.
For RRIRQRPPRLPRPRPRPPGYPRP, the “shrunken log2 fold change” value was 0.225.
RRIRMRPPRLPRPRPRPPLIPRP was tested, and the “shrunken log2 fold change” value was 0.242.
With RRIRYRPPRLPRPRPRPTEDPRP the “shrunken log2 fold change” value was -0.166.
With RRIRPRPPRLPRPRPRPKDQPRP the “shrunken log2 fold change” value was 0.111.
For RRIRMRPPRLPRPRPRPAQNPRP, the “shrunken log2 fold change” value was 1.07.
In the case of RRIRYRPPRLPRPRPRPVQIPRP, the “shrunken log2 fold change” value is reported as -0.146.
For RRIRTRPPRLPRPRPRPPYAPRP, the “shrunken log2 fold change” value was -0.17.
In the case of RRIRHRPPRLPRPRPRPMTWPRP, the “shrunken log2 fold change” value is reported as 0.148.
With RRIRPRPPRLPRPRPRPQIGPRP the “shrunken log2 fold change” value was 0.128.
For RRIRMRPPRLPRPRPRPEILPRP, the “shrunken log2 fold change” value was 0.121.
For RRIRIRPPRLPRPRPRPTFTPRP, the “shrunken log2 fold change” value was -0.373.
With RRIRWRPPRLPRPRPRPEVYPRP the “shrunken log2 fold change” value was -0.0423.
For RRIRHRPPRLPRPRPRPKGEPRP, the “shrunken log2 fold change” value was -0.0141.
RRIRVRPPRLPRPRPRPYLRPRP was tested, and the “shrunken log2 fold change” value was -0.165.
RRIRKRPPRLPRPRPRPYDLPRP was tested, and the “shrunken log2 fold change” value was 0.115.
RRIRDRPPRLPRPRPRPHKFPRP was tested, and the “shrunken log2 fold change” value was -0.122.
For RRIRFRPPRLPRPRPRPAYQPRP, the “shrunken log2 fold change” value was -0.135.
RRIRMRPPRLPRPRPRPGVKPRP was tested, and the “shrunken log2 fold change” value was 0.172.
For RRIRFRPPRLPRPRPRPTTDPRP, the “shrunken log2 fold change” value was -0.13.
With RRIRQRPPRLPRPRPRPGVRPRP the “shrunken log2 fold change” value was -0.0485.
RRIRCRPPRLPRPRPRPHYCPRP was tested, and the “shrunken log2 fold change” value was -0.342.
RRIRVRPPRLPRPRPRPMTGPRP was tested, and the “shrunken log2 fold change” value was -0.0967.
With RRIRYRPPRLPRPRPRPHWSPRP the “shrunken log2 fold change” value was -0.318.
RRIRVRPPRLPRPRPRPRGRPRP was tested, and the “shrunken log2 fold change” value was 0.197.
